These results are taken from patent publication US20260285962 (published 2026).

Where a chain is given by its changes, count along the chain named.

For assay [1], the target named is T1, Human Follistatin 300 (human, UniProt P19883).
T1 chain: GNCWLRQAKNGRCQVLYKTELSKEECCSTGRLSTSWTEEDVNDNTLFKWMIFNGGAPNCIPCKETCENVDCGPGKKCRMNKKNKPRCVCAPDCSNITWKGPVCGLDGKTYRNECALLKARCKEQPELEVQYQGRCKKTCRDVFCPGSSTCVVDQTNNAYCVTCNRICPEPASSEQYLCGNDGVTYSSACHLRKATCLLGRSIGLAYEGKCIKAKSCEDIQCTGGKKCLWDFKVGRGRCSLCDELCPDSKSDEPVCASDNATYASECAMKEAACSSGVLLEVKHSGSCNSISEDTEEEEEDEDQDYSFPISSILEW
Nature of the assay: BLI, bivalent. In general terms: BLI is a label-free optical method that tracks binding on a fibre tip over time.

In assay [2] the target is T2, Human GDF10 (human, UniProt P55107).
T2 chain: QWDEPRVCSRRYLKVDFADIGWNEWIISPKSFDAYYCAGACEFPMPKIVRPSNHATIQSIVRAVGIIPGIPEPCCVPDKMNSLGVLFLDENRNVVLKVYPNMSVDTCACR
In words: BLI, bivalent.

For assay [3], the target named is T3, GDF15-Fc (UniProt Q99988).
T3 chain: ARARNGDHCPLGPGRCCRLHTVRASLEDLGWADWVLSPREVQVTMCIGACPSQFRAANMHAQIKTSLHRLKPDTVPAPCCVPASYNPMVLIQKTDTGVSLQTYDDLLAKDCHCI
Nature of the assay: BLI, bivalent.

The target of assay [4] is Human GDF8 (human, UniProt O14793). Nature of the assay: BLI, bivalent.
For assay [5], the target named is T4, Human Activin A-Fc (human).
T4 chain: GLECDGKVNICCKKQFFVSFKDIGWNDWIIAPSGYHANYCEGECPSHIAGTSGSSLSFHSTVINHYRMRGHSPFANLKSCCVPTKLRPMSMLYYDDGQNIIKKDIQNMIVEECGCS
Nature of the assay: BLI, bivalent.

The target of assay [6] is T5, Human GDF11 (human, UniProt O95390).
T5 chain: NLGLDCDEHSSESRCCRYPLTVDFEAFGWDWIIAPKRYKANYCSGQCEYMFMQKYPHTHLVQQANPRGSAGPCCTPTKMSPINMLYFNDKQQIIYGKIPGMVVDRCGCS
In words: BLI, bivalent.

For assay [7], the target named is T6, BMP9 (UniProt Q9UK05).
T6 chain: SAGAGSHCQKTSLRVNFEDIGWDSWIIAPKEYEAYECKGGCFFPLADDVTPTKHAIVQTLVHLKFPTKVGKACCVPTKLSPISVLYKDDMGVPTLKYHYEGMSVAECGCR
In words: BLI, bivalent.

For assay [8], the target named is T7, Human Activin B (human).
T7 chain: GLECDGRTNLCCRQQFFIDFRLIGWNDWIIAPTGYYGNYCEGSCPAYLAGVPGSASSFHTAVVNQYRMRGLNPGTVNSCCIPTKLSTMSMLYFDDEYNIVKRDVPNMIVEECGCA
Nature of the assay: BLI, bivalent.

Assay [9] concerns the target T8, BMP10 (UniProt O95393).
T8 chain: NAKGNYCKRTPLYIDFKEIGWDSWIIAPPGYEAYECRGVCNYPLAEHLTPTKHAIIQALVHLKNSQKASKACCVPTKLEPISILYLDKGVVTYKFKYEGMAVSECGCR
Nature of the assay: BLI, bivalent.

For assay [10], the target named is T9, Human GDNF (human, UniProt P39905).
T9 chain: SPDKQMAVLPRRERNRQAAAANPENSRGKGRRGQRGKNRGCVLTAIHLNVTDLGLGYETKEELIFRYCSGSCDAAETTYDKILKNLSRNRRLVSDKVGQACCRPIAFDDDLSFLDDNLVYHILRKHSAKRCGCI
In words: BLI, bivalent.

The target in assay [11] is T4, Human Activin A-Fc. Nature of the assay: BLI, monovalent.
For assay [12], the target named is T10, Human Activin A (biotinylated) (human).
T10 chain: T4 chain
Nature of the assay: SPR, 25C, monovalent. For orientation: SPR reads the build-up and loss of mass on a sensor chip optically.

Assay [13] deals with T5, Human GDF11. In words: BLI, bivalent.
The target of assay [14] is T2, Human GDF10. In words: BLI, bivalent.

Sequence of Human GDF8 (O14793 267-375): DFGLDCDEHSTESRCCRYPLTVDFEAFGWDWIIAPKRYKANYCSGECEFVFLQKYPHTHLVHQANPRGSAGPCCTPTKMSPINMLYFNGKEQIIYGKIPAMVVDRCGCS

B1: Clone B IgG (antibody, V domains shown)
VH: QLQLQESGPGLVKPSETLSLTCTVSGGSISSQQYYWGWIRQPPGKGLEWIGSISYAASTYYNPSLKSRVTISVDTSKNQFSLKLSSVTAADTAVYYCAREGYDSYSYDVWGQGTMVTVSS
VL: EIVLTQSPATLSVSPGERATLSCRASQSVGSNLAWYQQKPGQAPRLLIYGASTRATGIPARFSGSGSGTEFTLTISSLQSEDFAVYYCQQYNFYPPITFGGGTKVEIK
For B1, the binding result in [1], in [2], in assay [3], in [4], in assay [6] and in assay [7] was “no binding” in each case. For the same molecule, the binding result in [9] and in assay [10] was “no binding” throughout. Moreover, the values for the Kd in [5] and in assay [8] were 0.545 nM and 0.766 nM, respectively.

B2: Clone A IgG (antibody, V domains shown)
VH: B1 VH with Q32S, Q33S, A56S, A57G
VL: B1 VL
On to B2, for which the binding result in assay [1], in assay [2], in assay [3], in [4], in assay [6] and in assay [7] was “no binding” throughout. The binding result in assay [9] and in assay [10] was “no binding” each time. The Kd in assay [5] is 0.661 nM; in assay [8] it was 0.76 nM.

B3: Clone B Fab (antibody, V domains shown)
VH: B1 VH
VL: B1 VL
B3: the Kd came to 2.1 nM in assay [11] and 0.903 nM in assay [12].

B4: Clone A Fab (antibody, V domains shown)
VH: B1 VH with Q32S, Q33S, A56S, A57G
VL: B1 VL
B4: the Kd came to 3.55 nM in assay [11] and 1.64 nM in assay [12].

B5: Clone C IgG (antibody, V domains shown)
VH: QLQLQESGPGLVKPSETLSLTCTVSGGSISSYDPYWGWIRQPPGKGLEWIGSISYSGSTLYNPSLKSRVTISVDTSKNQFSLKLSSVTAADTAVYYCAREVSYLGSRRYGMDVWGQGTTVTVSS
VL: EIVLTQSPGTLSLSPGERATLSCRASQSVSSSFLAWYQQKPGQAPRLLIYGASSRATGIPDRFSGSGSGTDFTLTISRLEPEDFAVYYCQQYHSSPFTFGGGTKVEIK
For the molecule B5, the binding result in assay [1], in [3], in assay [4], in [7], in [9] and in assay [10] was “no binding” throughout. The Kd stood at 0.552 nM in assay [5], 8.41 nM in [13], 25.8 nM in [14] and 0.861 nM in assay [8].

B6: Clone C Fab (antibody, V domains shown)
VH: B5 VH
VL: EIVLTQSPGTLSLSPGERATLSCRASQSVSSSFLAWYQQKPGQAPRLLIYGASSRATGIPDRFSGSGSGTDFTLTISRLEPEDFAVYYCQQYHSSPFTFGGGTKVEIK
Turning to B6, the Kd in assay [11] was determined as 0.963 nM; in assay [12], 0.0832 nM.
